The text below walks through data of patent publication US12698507B2, “Methods and compositions for conferring and/or enhancing herbicide tolerance using protoporphyrinogen IX oxidase of various cyanobacteria or variant thereof” (FarmHannong Co., Ltd., priority 2019, dated 2026).

To fix the notation:
B1: CyPPO19 R89A + A167C + I408R + F360M: variant of CyPPO19 PPO protein (SEQ ID NO: 1) (protein)
chain: MSEVDVAIVGGGLSGLSLAWRLQQSAPQYSVVLLEASDRLGGNITTQTAEGFVWELGPNSFAPTPALLQLIAEVGLQSELIRGDRHLPAYIYWRGQLYPLQPTRPLALATSNLLSPWGKVRAALGALGFVPPYLGSGDESVNSFFRRHLGQEVAERLVAPFVSGVYCGDPQQLSAAAAFRRIAQLEKLGGGLIAGALHLRRQQAPKPKPPTSVQMRPGELGSFKEGLAALPRAIAQQLKAPIHLQTPVQEITPDPKGGYLLRSGEQTWRARSVVLATPAYQTAELVAPFQPAIARVLATIPYPTVACVVLAYPAGLGRSVRPGFGVLIPRSQGIRTLGTIWSSCLFPQRTPAGWQVFTSMIGGATDPDLASLSEEAIVQQVQQDLNRLLDLPAAKARLLGMKVWRRARPQYMVGYPEQWQQVTHALSQTPGLFLCSNYAEGVALGDRVEHGNRTAAAVAAYLSGGQP
modifications: Synthetic_PPO of Thermosynechococcus elongatus PKUAC-SCTE542 (comprising GenBank No. CP032152.1)
B2: CyPPO19 V165S + F360V: variant of CyPPO19 PPO protein (SEQ ID NO: 1) (protein)
chain: MSEVDVAIVGGGLSGLSLAWRLQQSAPQYSVVLLEASDRLGGNITTQTAEGFVWELGPNSFAPTPALLQLIAEVGLQSELIRGDRHLPRYIYWRGQLYPLQPTRPLALATSNLLSPWGKVRAALGALGFVPPYLGSGDESVNSFFRRHLGQEVAERLVAPFVSGSYAGDPQQLSAAAAFRRIAQLEKLGGGLIAGALHLRRQQAPKPKPPTSVQMRPGELGSFKEGLAALPRAIAQQLKAPIHLQTPVQEITPDPKGGYLLRSGEQTWRARSVVLATPAYQTAELVAPFQPAIARVLATIPYPTVACVVLAYPAGLGRSVRPGFGVLIPRSQGIRTLGTIWSSCLFPQRTPAGWQVFTSVIGGATDPDLASLSEEAIVQQVQQDLNRLLDLPAAKARLLGMKVWRRAIPQYMVGYPEQWQQVTHALSQTPGLFLCSNYAEGVALGDRVEHGNRTAAAVAAYLSGGQP
modifications: Synthetic_PPO of Thermosynechococcus elongatus PKUAC-SCTE542 (comprising GenBank No. CP032152.1)
B3: CyPPO19 V165S + A167C + L327T + F360M: variant of CyPPO19 PPO protein (SEQ ID NO: 1) (protein)
chain: MSEVDVAIVGGGLSGLSLAWRLQQSAPQYSVVLLEASDRLGGNITTQTAEGFVWELGPNSFAPTPALLQLIAEVGLQSELIRGDRHLPRYIYWRGQLYPLQPTRPLALATSNLLSPWGKVRAALGALGFVPPYLGSGDESVNSFFRRHLGQEVAERLVAPFVSGSYCGDPQQLSAAAAFRRIAQLEKLGGGLIAGALHLRRQQAPKPKPPTSVQMRPGELGSFKEGLAALPRAIAQQLKAPIHLQTPVQEITPDPKGGYLLRSGEQTWRARSVVLATPAYQTAELVAPFQPAIARVLATIPYPTVACVVLAYPAGLGRSVRPGFGVTIPRSQGIRTLGTIWSSCLFPQRTPAGWQVFTSMIGGATDPDLASLSEEAIVQQVQQDLNRLLDLPAAKARLLGMKVWRRAIPQYMVGYPEQWQQVTHALSQTPGLFLCSNYAEGVALGDRVEHGNRTAAAVAAYLSGGQP
modifications: Synthetic_PPO of Thermosynechococcus elongatus PKUAC-SCTE542 (comprising GenBank No. CP032152.1)
B4: CyPPO19 V165C + A167I + V305M + F360V: variant of CyPPO19 PPO protein (SEQ ID NO: 1) (protein)
chain: MSEVDVAIVGGGLSGLSLAWRLQQSAPQYSVVLLEASDRLGGNITTQTAEGFVWELGPNSFAPTPALLQLIAEVGLQSELIRGDRHLPRYIYWRGQLYPLQPTRPLALATSNLLSPWGKVRAALGALGFVPPYLGSGDESVNSFFRRHLGQEVAERLVAPFVSGCYIGDPQQLSAAAAFRRIAQLEKLGGGLIAGALHLRRQQAPKPKPPTSVQMRPGELGSFKEGLAALPRAIAQQLKAPIHLQTPVQEITPDPKGGYLLRSGEQTWRARSVVLATPAYQTAELVAPFQPAIARVLATIPYPTMACVVLAYPAGLGRSVRPGFGVLIPRSQGIRTLGTIWSSCLFPQRTPAGWQVFTSVIGGATDPDLASLSEEAIVQQVQQDLNRLLDLPAAKARLLGMKVWRRAIPQYMVGYPEQWQQVTHALSQTPGLFLCSNYAEGVALGDRVEHGNRTAAAVAAYLSGGQP
modifications: Synthetic_PPO of Thermosynechococcus elongatus PKUAC-SCTE542 (comprising GenBank No. CP032152.1)

The test system of the assay is PPO-deficient BT3 E. coli (ΔPPO). Briefly: PPO-inhibiting herbicide tolerance test of PPO variants in E. coli (growth on herbicide-containing LB agar). It is filed as cell-based. Particulars: CyPPO19 variants in BT3 (ΔPPO) E. coli; LB agar with 0 to 2,000 μM herbicide, 37° C., dark, 16-20 hours. In outline:
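Tolerance was scored against wild-type enzyme: '−' for equal growth, one '+' per 10-fold gain, up to '+++++'. ΔPPO BT3 cells carrying variant plasmids, spotted as a 10-fold dilution series from OD600=0.5, grew 16-20 h at 37° C. in the dark on ampicillin LB agar containing 0 to 2,000 μM herbicide.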
In the case of B1, the “tolerance level relative to wild type, Carfentrazone” value is “+ (‘+’ per each 10-fold resistance)”; the “tolerance level relative to wild type, Flumioxazin” value was “++++ (‘+’ per each 10-fold resistance)”; the “tolerance level relative to wild type, Fomesafen” value is reported as “++ (‘+’ per each 10-fold resistance)”; the “tolerance level relative to wild type, Oxyfluorfen” value is “++ (‘+’ per each 10-fold resistance)”. The “tolerance level relative to wild type, Saflufenacil” value is “+++ (‘+’ per each 10-fold resistance)”; the “tolerance level relative to wild type, Sulfentrazone” value is recorded as “++ (‘+’ per each 10-fold resistance)”; the “tolerance level relative to wild type, Tiafenacil” value is given as “+++ (‘+’ per each 10-fold resistance)”.

B2: the “tolerance level relative to wild type, Carfentrazone” value is listed as “+ (‘+’ per each 10-fold resistance)”; the “tolerance level relative to wild type, Flumioxazin” value is reported as “++++ (‘+’ per each 10-fold resistance)”; the “tolerance level relative to wild type, Fomesafen” value is given as “+ (‘+’ per each 10-fold resistance)”; the “tolerance level relative to wild type, Oxyfluorfen” value was “++ (‘+’ per each 10-fold resistance)”. The “tolerance level relative to wild type, Saflufenacil” value is reported as “++++ (‘+’ per each 10-fold resistance)”; the “tolerance level relative to wild type, Sulfentrazone” value was “++++ (‘+’ per each 10-fold resistance)”; the “tolerance level relative to wild type, Tiafenacil” value is “++++ (‘+’ per each 10-fold resistance)”.

On to B3, for which the “tolerance level relative to wild type, Carfentrazone” value is “+ (‘+’ per each 10-fold resistance)”; the “tolerance level relative to wild type, Flumioxazin” value is “++++ (‘+’ per each 10-fold resistance)”; the “tolerance level relative to wild type, Fomesafen” value was “++ (‘+’ per each 10-fold resistance)”; the “tolerance level relative to wild type, Oxyfluorfen” value is “++ (‘+’ per each 10-fold resistance)”. In addition, the “tolerance level relative to wild type, Saflufenacil” value is given as “++++ (‘+’ per each 10-fold resistance)”; the “tolerance level relative to wild type, Sulfentrazone” value is recorded as “++++ (‘+’ per each 10-fold resistance)”; the “tolerance level relative to wild type, Tiafenacil” value is “++++ (‘+’ per each 10-fold resistance)”.

Take B4: the “tolerance level relative to wild type, Carfentrazone” value was “+ (‘+’ per each 10-fold resistance)”; the “tolerance level relative to wild type, Flumioxazin” value is given as “++ (‘+’ per each 10-fold resistance)”; the “tolerance level relative to wild type, Fomesafen” value is on record as “+ (‘+’ per each 10-fold resistance)”; the “tolerance level relative to wild type, Oxyfluorfen” value is “+ (‘+’ per each 10-fold resistance)”. For the same molecule, the “tolerance level relative to wild type, Saflufenacil” value is given as “++ (‘+’ per each 10-fold resistance)”; the “tolerance level relative to wild type, Sulfentrazone” value was “+ (‘+’ per each 10-fold resistance)”; the “tolerance level relative to wild type, Tiafenacil” value is reported as “++ (‘+’ per each 10-fold resistance)”.
